Assay results taken from paper PMC8441738 (MedComm, 2021).

What was measured:
[1] = biological target: T1, SARS-CoV-2 RBD (residues Arg319-Phe541), His-tagged (SARS-CoV-2, UniProt P0DTC2); assay: SPR; details: both partners purified
[2] = biological target: T1, SARS-CoV-2 RBD (residues …); assay: cryo-EM structure; details: both partners purified

Binder	binding result [1]	binding result [2]
MA1 monoclonal antibody (antibody, V domains shown, also called group I mAb; source: hybridoma cell line or transfection of linear expression cassettes) VH: QVQLKESGPGLVAPSQSLSITCTVSGFSLSDYSISWIRQPPGKGLEWLGVIWGGGSTYYNSALKSRLSISKDNSKSQVFLKMNSLQTDDTAMYYCAKHPLYYGSNSDGYYAMDYWGQGTSVTVSS VL: DIVMTQSHKFMSTSVGDRVSITCKASQDVGIVVAWYQQKPGQSPKLLIYWASTRHTGVPDRFTGSGSGTDFTLTISNVQSEDLADYFCQQYSSYPLTFGGGTKLEIK	binds	
MA1scFv (scFv, V domains shown) VH: QVQLKESGPGLVAPSQSLSITCTVSGFSLSDYSISWIRQPPGKGLEWLGVIWGGGSTYYNSALKSRLSISKDNSKSQVFLKMNSLQTDDTAMYYCAKHPLYYGSNSDGYYAMDYWGQGTSVTVSS VL: DIVMTQSHKFMSTSVGDRVSITCKASQDVGIVVAWYQQKPGQSPKLLIYWASTRHTGVPDRFTGSGSGTDFTLTISNVQSEDLADYFCQQYSSYPLTFGGGTKLEIK		binds
